# Source: paper PMC4108183
# Legend:
# purified protein [1] = substrate: CC(C)(COP(=O)(O)OP(=O)(O)OC[C@H]1O[C@@H](n2cnc3c(N)ncnc32)[C@H](O)[C@@H]1OP(=O)(O)O)[C@@H](O)C(=O)NCCC(=O)NCCS; test: purified protein; details: alternate sulfane sulfur acceptor; pH 9.0; 37.0 °C
# purified protein [2] = substrate: O=S(O)(O)=S; test: purified protein; details: pH 9.0, 37.0 °C
Protein,Km (purified protein [1]) [µM],Km (purified protein [2]; sulfane sulfur transferred to active site cysteine (Cys79)) [µM],Km (purified protein [2]; sulfane sulfur transferred to active site cysteine (Cys98)) [µM]
human TSTD1 (Homo sapiens) (protein) MAGAPTVSLPELRSLLASGRARLFDVRSREEAAAGTIPGALNIPVSELESALQMEPAAFQALYSAEKPKLEDEHLVFFCQMGKRGLQATQLARSLGYTGARNYAGAYREWLEKES,90 ± 10,14000 ± 2000,
yeast RDL1 (Saccharomyces cerevisiae S288C) (protein) MWKAVMNAWNGTESQSKNVSNIQSYSFEDMKRIVGKHDPNVVLVDVREPSEYSIVHIPASINVPYRSHPDAFALDPLEFEKQIGIPKPDSAKELIFYCASGKRGGEAQKVASSHGYSNTSLYPGSMNDWVSHGGDKLDL,150 ± 50,,2000 ± 500
